Laboratory results: patent US20250108090A1 (published 2025)

Molecular target: T1, mouse apoptosis inhibitor of macrophage (AIM), wild-type recombinant (mouse, UniProt Q9QWK4 22-352)
T1 construct: mature; also called rAIM; mouse AIM
T1 sequence (looked up): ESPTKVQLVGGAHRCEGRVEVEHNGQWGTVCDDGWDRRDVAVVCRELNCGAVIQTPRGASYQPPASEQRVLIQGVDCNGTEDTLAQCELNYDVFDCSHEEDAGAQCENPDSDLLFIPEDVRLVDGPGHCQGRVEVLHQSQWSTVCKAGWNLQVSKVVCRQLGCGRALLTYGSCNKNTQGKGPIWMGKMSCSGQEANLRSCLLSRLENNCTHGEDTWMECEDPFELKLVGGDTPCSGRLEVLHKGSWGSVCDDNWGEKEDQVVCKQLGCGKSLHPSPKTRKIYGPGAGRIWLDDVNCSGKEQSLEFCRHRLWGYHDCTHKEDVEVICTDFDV
Assay: immunofluorescence co-localisation on peritoneal macrophages, confocal microscope (FIG. 3H)
Method: Peritoneal macrophages isolated from AIM^{-/-} mice were plated on a Lab-Tek II chamber slide (NalgeNunk) and cultured for 2 h to let them attach to the slide. The cells were incubated with 10 μg/mL of DAMPs (mouse PRDX1-His, human PRDX1-His, human HMGB1, or mouse S100A9) with or without wild-type mouse or human rAIM (100 μg/mL) at 37° C. for 10 min. For mouse PRDX1, the mutants of 2CS or ΔSRCR3 were also used. Each ligand and AIM were immunostained with antibodies to His (for mouse and human PRDX1), HMGB1 or S100A9, followed by fluorescent-conjugated secondary antibodies. Nuclei were stained with 4′,6-diamidino-2-phenylindole (DAPI). The cells were analyzed under a florescence confocal microscope.

B1: mouse PRDX1-His (RPF757Mu01, USCN) (ligand, UniProt P35700 1-199, looked up)
chain: MSSGNAKIGYPAPNFKATAVMPDGQFKDISLSEYKGKYVVFFFYPLDFTFVCPTEIIAFSDRADEFKKLNCQVIGASVDSHFCHLAWINTPKKQGGLGPMNIPLISDPKRTIAQDYGVLKADEGISFRGLFIIDDKGILRQITINDLPVGRSVDEIIRLVQAFQFTDKHGEVCPAGWKPGSDTIKPDVNKSKEYFSKQK
notes: also called RPDX; not shown: His tag
- binding result: binds
